Experimental data as given in US20160280788A1, “USE OF ANTIBODIES AGAINST ICAM-1 IN THE TREATMENT OF PATIENTS WITH RELAPSED CANCER” (BioInvent International AB, priority 2010, published 2016).
“Also recorded” adds a separate entry of the source. Where two headings read alike, the source gives them in different places.

What was measured:
[1] = biological target: T1, human FcγRIIIa (Homo sapiens, UniProt P08637); experiment: Biacore binding of BI-505 isotype variants to human FcγRIIIa
T1 construct: made in house; host or cells: HEK293E (transient)
Description: His-tagged human FcγRIIIa or mouse FcγRIV were expressed transient in adherent HEK293E cells, purified using Ni-NTA chromatography and characterized using SDS-PAGE and/or Biacore. Surface plasmon resonance (SPR) measurements were perfomed using a Biacore 3000 instrument. Goat α-human-F(ab)′2 F(ab)′2 fragment (Jackson laboratories) was immobilised with a CM-5 chip using a standard amine coupling protocol. IgG1 B11, Iga4 B11, or 297Q B11 were diluted to 15 and 60 μg/mL respectively and added to the surface at […] for 3 min. His tagged human FcγRIIIa or mouse FcγRIV were pre-incubated with an α-HIS antibody (R&D Systems) at a 2:1 molar ratio before addition to the chip surface, […], 1 min. After each cycle the surface was regenerated twice with glycine buffer pH 1.7.

[2] = system: F4/80 positive host effector cells in ARH-77 xenograft tissue; conditions: compared to control IgG, untreated and rituximab treated mice
Description: (FIG. 7A) ARH-77 cells were injected subcutaneously into the left flank of SCID mice (n=8 per group). […] Statistical significance was calculated relative to control antibody treatment using Kruskal-Wallis Test (Nonparametric ANOVA) with Dunn's Multiple Comparisons Test. Statistical significance was considered for *p<0.05, **p<0.01, and ***p<0.001.

[3] = system: Daudi cells; experiment: Subcutaneous Daudi non-Hodgkin lymphoma xenograft; format: in vivo, scid mice; conditions: twice weekly i.p. from day 1; compared to rituximab
[4] = system: EJM myeloma cells; experiment: Subcutaneous myeloma xenograft, EJM; format: in vivo, scid mice; conditions: 2 mg/kg twice weekly i.p.; vs control IgG1
Description: (§1) Antibody treatment with 2 mg/kg BI-505 or control IgG1 was started at Day 1 and was continued on a twice-weekly intraperitoneal dosing regimen. Mice were sacrificed when tumor sizes reached the ethical limit.

[5] = system: Daudi lymphoma cells; experiment: Programmed cell death (PCD) assay, Daudi; format: cell-based, human
Description: Target cells were seeded in 96-well culture plates at a density of 2×10^6 cells/mL culture medium. […] The cells were then incubated for 16 hours at 37° C. in a humidified atmosphere of 5% CO2. The cells were harvested and stained for Annexin V-488/Propidium Iodide (Invitrogen, Sweden) and analysed using flow cytometer (FACS Calibur, BD Bioscience).

[6] = system: OPM-2 myeloma cells; experiment: Subcutaneous myeloma xenograft, OPM-2 (ICAM-1 negative); format: in vivo, scid mice; conditions: 2 mg/kg twice weekly i.p.; ICAM-1 negative cell line
Description: as §1

[7] = system: RPMI-8226 myeloma cells; experiment: Subcutaneous myeloma xenograft, RPMI-8226; format: in vivo, scid mice; conditions: 2 mg/kg twice weekly i.p.; vs control IgG1
Description: as §1

[8] = system: NCI-H929 myeloma cells; experiment: Subcutaneous myeloma xenograft, NCI-H929; format: in vivo, scid mice; conditions: 2 mg/kg twice weekly i.p.; vs control IgG1
Description: as §1

[9] = system: peripheral blood B cells; experiment: PCD in normal B cells; format: cell-based; conditions: resting or activated cells
Description: (§2) Target cells were seeded in 96-well culture plates at a density of 2×10^6 cells/mL culture medium. Titrated concentrations of IgG1 B11 or different negative and positive control antibodies were added to the cells, in the absence or presence of anti-human Fab fragment (Jackson ImmunoResearch) for cross-linking. The cells were then incubated for 16 hours at 37° C. in a humidified atmosphere of 5% CO2. The cells were harvested and stained for Annexin V-488/Propidium Iodide (Invitrogen, Sweden) and analysed using flow cytometer (FACS Calibur, BD Bioscience).

[10] = system: HUVEC and HMVEC endothelial cells; experiment: PCD in normal endothelial cells; format: cell-based; conditions: resting or activated (IFN-γ) cells
Description: as §2

[11] = system: ARH-77 tumors; experiment: Subcutaneous scid/ARH-77 xenograft, established (palpable tumor) model; conditions: IgG B11 even at 0.2 mg/kg (100-fold lower dose than rituximab)
Description: Mice were anaesthetized with a mixture of sevofluran and oxygen prior to myeloma cell inoculation and 1-5×10^6 myeloma cells were then subcutaneously injected in a volume of 100 μl into the left flank. Treatment with antibodies by intraperitonial (i.p.) injections was started either the day after cell inoculation (prophylactic model) or when tumors reached a size of approximately 100 mm^3 (established model). Antibodies were administrated in PBS in a total volume of 200 μL. Treatment with PBS or isotype control was used as control. Tumors were measured with a digital calliper and the tumor volumes were calculated according to formula: width^2×length×0.52. Animals were sacrificed when the tumor sizes reached the ethical limit of 1.5 cm. Surviving mice were sacrificed after a maximum of 5 months. Blood samples collected from the vena cava were centrifuged at 2500 g for 15 min to obtain serum and the samples were stored at −20° C. Tumors were removed for immunohistochemistry, snap frozen and were kept at −85° C.

[12] = system: B lymphoma cell line (CL-01); experiment: ADCC of tumor cells with human NK effector cells; format: cell-based; conditions: human Natural Killer effector cells
Excerpt: Buffy coats from human donors (ordered through Blodcentralen, Lund) were used to isolate peripheral blood mononuclear cells (PBMCs), and subsequently NK cells. Briefly, peripheral blood components were separated using Ficoll Paque PLUS (Amersham Biosciences, Sweden) in LeucoSep tubes (Greiner Bio-One). The PBMC fraction was removed and thoroughly washed in ice-cold DPBS (Invitrogen), before magnetic labeling and separation of the NK cell population using positive or negative NK cell isolation kits and MACS LS columns (Miltenyi Biotec). The purity of the obtained NK cell fractions was analyzed using flow cytometry, after staining with α-CD56 antibodies (BD Biosciences). Target cells were harvested, and incubated in medium with or without the respective antibodies (2 μg/mL) for 60 min on ice. Cells were thereafter washed and resuspended in cold medium before dispension into FACS tubes. Subsequently, isolated NK cells were diluted in ADCC medium and dispensed together with the respective antibody-coated target cells at varying effector/target cell ratios (40:1, 20:1, 5:1 and 1:1). All experiments were performed in triplicates. After completed incubation ToPo-Pro-3 dye and counting beads (Invitrogen) were added and cells were analyzed for membrane permeabilization using flow cytometry.

[13] = system: HUVEC, HMVEC or peripheral blood B cells; experiment: CDC of normal ICAM-1 expressing cells; format: cell-based
Description: Target cells were harvested and incubated in RPMI medium with antibodies at 5 μg/mL or at titrated concentrations between 0.01-100 μg/mL for 60 min on ice. Cells were thereafter washed and resuspended in cold medium before dispension into flow cytometry tubes. Treatments were performed in triplicates. Human serum, normal or heat-inactivated, (Sigma, Sweden) was added to tubes and the samples were incubated for 2 h at 37° C. After completed incubation ToPo-Pro-3 was added at a final concentration of 0.3 μM and cells were analyzed for membrane permeabilization using flow cytometry.

[14] = biological target: recombinant human ICAM-1 (Homo sapiens, UniProt P05362); experiment: ELISA on recombinant human ICAM-1, ICAM-2, ICAM-3; format: binding; conditions: vs ICAM-2, ICAM-3
Description: Antibody-specific bands were excised and subjected to tryptic digestion and analyzed by MALDI-TOF. The single band precipitated by BI-505 was identified as ICAM-1. The established identity of ICAM-1 was confirmed by blocking studies by up to 50-fold molar excess soluble recombinant ICAM-1 or VCAM. The MFI of BI-505 to PC-3 cells was determined by flow cytometry. Dashed line represents the negative control antibody and gray solid histogram represents the MFI of BI-505 with no preblocking. BI-505 was preblocked by recombinant VCAM or ICAM-1. […] Anti-ICAM-2 and α-ICAM-3 antibodies were used as positive controls to detect ICAM-2 and ICAM-3 respectively.

T1 sequence (P08637 17-254): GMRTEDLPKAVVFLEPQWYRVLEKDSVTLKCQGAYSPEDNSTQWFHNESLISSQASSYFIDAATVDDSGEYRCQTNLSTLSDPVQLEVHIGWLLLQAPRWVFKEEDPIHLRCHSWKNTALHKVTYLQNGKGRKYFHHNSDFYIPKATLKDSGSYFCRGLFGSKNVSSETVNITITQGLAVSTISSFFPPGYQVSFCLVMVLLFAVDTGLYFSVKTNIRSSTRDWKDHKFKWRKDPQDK
Chain of recombinant human ICAM-1 (P05362 28-532): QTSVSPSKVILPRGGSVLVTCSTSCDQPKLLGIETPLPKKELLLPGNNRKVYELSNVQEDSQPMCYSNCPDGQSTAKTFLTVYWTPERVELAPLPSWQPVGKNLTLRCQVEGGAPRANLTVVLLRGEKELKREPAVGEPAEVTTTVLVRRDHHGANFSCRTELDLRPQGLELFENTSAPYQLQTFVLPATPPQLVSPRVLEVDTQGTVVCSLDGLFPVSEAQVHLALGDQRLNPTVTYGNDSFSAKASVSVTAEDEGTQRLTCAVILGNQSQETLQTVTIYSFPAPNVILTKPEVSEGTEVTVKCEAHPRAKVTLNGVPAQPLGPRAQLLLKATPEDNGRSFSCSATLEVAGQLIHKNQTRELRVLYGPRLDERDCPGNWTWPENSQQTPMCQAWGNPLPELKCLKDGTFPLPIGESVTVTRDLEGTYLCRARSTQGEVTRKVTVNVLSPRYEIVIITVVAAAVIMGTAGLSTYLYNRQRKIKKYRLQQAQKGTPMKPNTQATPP

B1: IgG B11: fully human ICAM-1 antibody isolated from the n-CoDeR library; VH/VL sequences in FIG. 15 (SEQ ID NOs 8, 10) (antibody, V domains shown)
VH: EVQLLESGGGLVQPGGSLRLSCAASGFTFSNAWMSWVRQAPGKGLEWVAFIWYDGSNKYYADSVKGRFTISRDNSKNTLYLQMNSLRAEDTAVYYCARYSGWYFDYWGQGTLVTVSS
VL: QSVLTQPPSASGTPGQRVTISCTGSSSNIGAGYDVHWYQQLPGTAPKLLIYDNNNRPSGVPDRFSGSKSGTSASLAISGLRSEDEADYYCQSYDSSLSAWLFGGGTKLTVLG
modifications: B11 VH region; B11 VL region
binding to human FcγRIIIa [1]: bound to human FcγRIIIa | influx of F4/80+ host effector cells (macrophage infiltration) in tumor tissue [2]: massive influx | influx of F4/80+ host effector cells (macrophage infiltration) in tumor tissue ([2]; listed as BI-505): significantly increased | survival of tumor bearing mice [3]: prolonged survival | tumor growth [3]: prevented tumor growth | reduction of myeloma tumor growth [4]: 98% | PCD induction ([5]; antibody immobilised by either of two coating protocols): induced programmed cell death | PCD induction ([5]; titrated antibody with cross-linking, 16 hours): dose dependent PCD-induction | tumor growth [6]: no effect on tumor growth; also recorded: did not affect tumor growth | reduction of myeloma tumor growth [7]: 96% | reduction of myeloma tumor growth [8]: 99% | PCD induction in normal B cells [9]: did not, however, induce PCD | PCD induction in normal endothelial cells [10]: did not, however, induce PCD | animal survival [11]: prolonged animal survival | tumor growth [11]: significantly prevented tumor growth | ADCC of target tumor cells [12]: mediated ADCC | CDC of normal cells [13]: did not confer ADCC or CDC | specificity for ICAM-1 [14]: high specificity
